Source: US20260258115A1 (MAPP BIOPHARMACEUTICAL, published 2026)

How the values were obtained:
Assay in all cases: BLI, IgG
[1] = target: RSV prefusion F (preF), subtype A (respiratory syncytial virus, subtype A, UniProt P03420 26-513)
[2] = target: T1, RSV postfusion F (postF), subtype A (respiratory syncytial virus, subtype A, UniProt P03420 26-513)
T1 construct: also called F ΔFP; Postfusion subtype A

[3] = target: RSV prefusion F (preF), subtype B (respiratory syncytial virus, subtype B)

Row | Binder | Kd [1] | binding result [2] | Kd [3] | Kd [2]
1 | ADI-14578 (antibody, V domains shown) VH: QVQLVQSGAEVKKPGSSVKVSCKASGGTFNNYAINWVRQAPGQGLEWMGGIIPMFGTANYAQKFQGRVTMTADESTSTAYMELSSLRSEDTAVYYCASSQIFVGGNYYKLEFDNWGQGTLVTVSS VL: QSVLTQPPSVSAAPGQKVTISCSGSNSNIGYNDVSWYQQLPGTAPQLLIYDNNKRTSGIPDRFSGSKFGTSATLGITGLQTGDEADYYCGTWDSSLSTVIFGGGTKLTVL | 3.29 nM | no binding | 4.02 nM | 
2 | ADI-14577 (antibody, V domains shown) VH: QVQLVQSGAEVKKPGASVKVSCKASGYTFTNYGITWVRQAPGQGLEWMGWISAYNGVRNYAQKLQGRVTMTIDTSRTTAYMELKNLRSDDTAMYYCARGPPVIAADDFQHWGQGTMVTVSS VL: DIQMTQSPLSLPVTLGQPASISCRSSQSLVHSNGDTYLNWFQQRPGRSPRRLIYKVSNRDSGVPDRFSGSGSGTDFTLKISRVEAEDVGVYYCMQGTHWPPDFGQGTRLEIK | 0.439 nM | no binding | 2.19 nM | 
3 | ADI-14420 (antibody, V domains shown, also called Ab 86) VH: EVQLVESGGVVVQPGGSLRLSCAASGFNFDDYAMHWVRQAPGKGLEWVSLISWDGGNTYYSDSVKGRFTISRDNGKNSLYLQMNSLRAEDTALYYCAKDIDRYSGYDYVFHYWGQGTLVTVSS VL: DIRLTQSPSTLSAYVGDRVTITCRASQSISSWLAWYQQKPGKAPKLLIYKASSLESGVPSRFTGSGSGTEFTLTISGLQPDDFATYYCQQYNSYSTFGGGTKVDIK | 6.35 nM | no binding | 4.32 nM | 
4 | ADI-14423 (antibody, V domains shown, also called Ab 89) VH: EVQLVESGGVVIQPGGSLRLSCAASGFNFDDYSMHWVRQAPGKGLEWVSLISWDGGITYYADSVKGRFTISRDNGKKSLYLQMNSLRTEDTALYYCAKDIDIYSDYAGYFDYWGQGTLVTVSS VL: DIRMTQSPSSLSASVGDRVTITCRASQGIRNDLGWYQQKPGKAPKRLIYAASSLQSGVPSRFSGSGSGTEFTLTISSLQPEDFATYYCLQHNSYPFTFGQGTRLEIK | 9.65 nM | no binding | 3.4 nM | 
5 | ADI-14413 (antibody, V domains shown, also called Ab 79) VH: EVQLVESGGVVVQPGGSLRLSCAASGFNFDDYSMHWVRQAPGKGLEWVSVISWDGGITYYADSVKGRFTMSRDNGKKSLYLQMNSLRTEDTAVYYCGKDGDIYSSSSAGIDYWGQGTLVTVSS VL: SYVLTQPPSASGTPGQRVIISCSGSSSNIGSHTVKWYQQLPGTAPKLLIDRNNQRPSGVPDRFSGPKSGTSASLAISGLQSEDEADYYCASWDDSLNGPVFGGGTQLTVL | 5.45 nM | no binding | 2.71 nM | 
6 | ADI-14427 (antibody, V domains shown, also called Ab 93) VH: QVQLVQSGAEVKKPGSSVKVSCKASGGTFNSYTINWVRQAPGQGLEWMGRIITIPGATNYAQKFQGRVTFTADKSTSTAYMELSSLRSEDTAVYFCAKRGTGYYGMDVWGQGTTVTVSS VL: QSVLIQPRSVSGSPGQSVTISCTGTSSDVGGYNYVSWYQQHPGKAPKLMIYDVSERPSGVPDRFSGSKSGNTASLTISGLQAEDEADYYCCSFVGIYILVFGGGTKLTVL | 0.234 nM |  | 10.8 nM | 3.33 nM
7 | ADI-14415 (antibody, V domains shown, also called Ab 81) VH: EVQLVESGPGLVKPSETLSLTCTVSGGSISNYYWTWIRQPPGEGLEWIGYIYYTGSTNYNPSLKNRVTISVDTPKNQFSLKLNSVTAADTAVYYCARGWGYSYGYESYYNGLDVWGQGTTVTVSS VL: DIQLTQSPSFLSASVGDRVTITCRASQGISSYLAWYQLKPGKAPKLLIYAAATLETGVPSRFSGSGSGTEFTLTISGLQPEDFATYYCQQLNSFPFTFGPGTKVEIK | 4.2 nM | no binding | 3.51 nM | 
8 | ADI-14597 (antibody, V domains shown) VH: EVQLVESGGVVVQPGGSLRLSCAVSGFNFDDYSMHWVRQLPGKGLEWVSLISWDGGITYYADSVKGRFTISRDNSKNSLYLQMNSLRTEDTALYYCAKDGNRYSDNDYYFDYWGQGTLVTVSS VL: not shown | 5.26 nM | no binding | 1.67 nM | 
9 | ADI-14602 (antibody, V domains shown, also called Ab 130) VH: EVQLVESGGGVVQPGGSLRLSCAASGFSFSSCGMHWVRQVSGKGLEWVAFIRYDGSNKFYADSVKGRFTISRDNSKNTLYLQMNSLRVEDTAVYYCAKGGLEDVSTGYSPHYYYGMDVWGQGTTVTVSS VL: QPVLTQPPSVSVSPGQTASITCSGDKLAYKYTCWYQQKPGQSPVLVIFQDSKRPSGIPERFSGSNSGNTATLTISGTQALDEADYYCQAWDSSTVVFGGGTKLTVL | 4.73 nM | no binding | 8.94 nM | 
10 | ADI-14426 (antibody, V domains shown, also called Ab 92) VH: EVQLVESGGGVVQPGRSLRLSCAASGFTFSSFPMHWVRQAPGKGLEWVAVASYDGRNNYYAGSVKGRFTISRDNSKNTLYLQINSLRAEDTAVYYCAREVVIAAHFDYWGQGTLVTVSS VL: SSELTQEPAVSVALGQTVRITCQGDSLRSFYANWYQQKPGQAPILVIYGKNDRPSGIPDRFSGSNSGNTASLTITGAQAEDEADYYCNSRDSSGNHRVFGGGTKVTVL | 23.8 nM |  | 19.2 nM | 0.396 nM
11 | ADI-14604 (antibody, V domains shown) VH: EVQLLESGGGLVQPGGSLRLSCSASGFTFNNYVMHWVRQAPGKGLEDASAISSNGVSTNYADSVKGRFTISRDNSKNTLYLQMRSLRAEDTALYYCVRDLIPHDSSAYYGYHGMDVWGQGTTVTVSS VL: QPVLTQPPSASGTPGQSVTISCSGSSSNIGTNVVNWYQQLPGTAPKLLIYSNDLRPSGVPDRFSGSKSGTSASLAISGLQSEDEANYYCAAWDDSLNGVLFGGGTKLTVL | 2.44 nM | no binding | 1.53 nM | 
12 | ADI-14422 (antibody, V domains shown, also called Ab 88) VH: QVQLVQSGAEVKKPGSSVKVSCKASGGTFSSYTINWVRQAPGQGLEWMGRIIPILGIANYAQKFQGRVTITADKSTSTAYMELSSLRSEDTAVYYCARRHQDTYGMDVWGQGTTVTVSS VL: QSVLTQPPSVSGAPGQRVTISCTGSSSNIGAGYDVHWYQQLPGTAPKLLIYGNSNRPSGVPDRFSGSKSGTSASLAITGLQAEDEADYYCQSYDSSLSGSVFGGGTKVTVL | 11.4 nM |  | 33.9 nM | 4.76 nM
13 | ADI-14600 (antibody, V domains shown) VH: QVQLVQSGGGLVKPGGSLRLSCAASGFSFSDYYMNWIRQAPGKGLEWVSYISSSSSYTNYADSVKGRFTISRDNAKKSLYLQMNSLRAEDTAVYYCASQTYSDYARGGAFDIWGQGTTVTVSS VL: QSVLTQPPSVSGAPGQRVTISCTGSSSNIGAGYDVHWYQQLPGTAPKLLIYGNNNRPSGVPDRFSGSKSGTSASLAITGLQAEDEADYYCQSYDSSLSGSVFGTGTKVTVL | 0.758 nM | no binding | 0.986 nM | 
14 | ADI-14414 (antibody, V domains shown, also called Ab 80) VH: QVQLVQSGAEVKKPGSSMKVSCKASGGSFSSYGISWLRQAPGQAPEWMGGIIPIFGTINYAQKFQGRITISADESTSTVYMELSSLRIEDTAVYYCARDGRTSPRYYGWDVWGQGTTVTVSS VL: DIRLTQSPATLSLSPGDRATLSCRASQSLYTYLSWYQQKPGQAPRLLIYDASNRATGIPARFSGSGSGTDFTLTISSLEPEDFAVYYCHYRSNWPPCTFGGGTKVDIK | 5 nM | no binding | 3.07 nM | 
